Assay [1] deals with T1, Biotinylated CoV2 Spike ECD PreS-AVI protein (SARS-CoV-2, UniProt P0DTC2 14-1208). Nature of the assay: Octet binning; competitor 20D11.
In assay [2] the target is T2, SARS-CoV-2 prefusion-stabilized spike protein (SARS-CoV-2-PreS) (SARS-CoV-2, UniProt P0DTC2 14-1208). The assay can be described thus: Biacore, apparent affinity.
The target in assay [3] is T2, SARS-CoV-2 prefusion-stabilized spike …. The assay can be described thus: ELISA. In general terms: In an ELISA, binding on a coated surface is turned into a signal by an enzyme label.
Assay [4] deals with T1, Biotinylated CoV2 Spike ECD PreS-AVI …. The assay can be described thus: Octet binning; competitor 19B8. In general terms: Biolayer interferometry detects binding as a change in optical thickness at a sensor tip.
Assay [5] shares this target. Nature of the assay: Octet binning; competitor 7A9.
Assay [6] has the same target. The assay can be described thus: Octet binning; competitor Std-B.
The target is the same in assay [7]. The assay can be described thus: Octet binning; competitor 1A11.
Assay [8] shares this target. The assay can be described thus: Octet binning; competitor 15H1.
Assay [9] has the same target. The assay can be described thus: Octet binning; competitor 13C8.
The target is the same in assay [10]. The assay can be described thus: Octet binning; competitor 8E9.
Assay [11] shares this target. Nature of the assay: Octet binning; competitor 11F8.
The target is the same in assay [12]. Nature of the assay: Octet binning; competitor Std-A.
For assay [13] the target is unchanged. Nature of the assay: Octet binning; competitor 9B2.
Assay [14] shares this target. The assay can be described thus: Octet binning; competitor Std-D.
Assay [15] has as its target SARS-CoV-2 Gamma P.1 spike on pseudovirus (SARS-CoV-2). The assay can be described thus: cell-based or functional assay.
Assay [16] concerns the target SARS-CoV-2 Omicron spike on pseudovirus (SARS-CoV-2). Nature of the assay: cell-based or functional assay.
In assay [17] the target is SARS-CoV-2 Alpha B.1.1.7 spike on pseudovirus (SARS-CoV-2). Nature of the assay: cell-based or functional assay.
Assay [18] addresses SARS-CoV-2 Beta B.1.351 spike on pseudovirus (SARS-CoV-2). Nature of the assay: cell-based or functional assay.
The target in assay [19] is T1, Biotinylated CoV2 Spike ECD PreS-AVI …. Nature of the assay: Octet binning; competitor 15H7.

B1: 20D11 VHH-Fc (Fc fusion)
chain: QVQLVESGGGLVQAGGSLRLSCAASGRTSSIYSVGWFRQAPGKERELVAGITWSGGTTYYSDSVKGRFTISRDNAKNTVNLQMNNLKPEDTAIYYCAVDRYSMTMSARDYDYWGQGTQVTVSS
A word on the EC50: it is the concentration at which the effect is half-maximal. Low values mean greater potency, high ones weaker potency. Consider B1, for which the values for the binning response in assay [1] and in [4] were 0.04 and 0.43, respectively. In addition, the Kd in assay [2] is below 0.2 nM. The same molecule returned an EC50 in assay [3] of 0.62 nM.

B2: 5G11 VHH-Fc (Fc fusion)
chain: QVQLVESGGGLVQAGGSLRLSCAASGRTFSIYAVGWFRQAPGKERDFVAGITWSGGTTYYSDSVKGRFTISRDNAKNTVYLQMNNLKPEDTAIYYCAVDTYSMTLSARSYDYWGQGTQVTVSS
For B2, the results for the binning response in assay [1] and in [4] were 0.05 and 0.4, respectively. Moreover, in assay [2], the Kd is 1.5 nM. Moreover, in assay [3], a half-maximal effect (EC50) was put at 0.4 nM.

B3: 14F3 VHH-Fc (Fc fusion)
chain: QVQLVESGGGLVQAGGSLRLSCAASGRTSSIYGVGWFRQAPGKERELVALITWSGGTTYYSDSVKGRFTISKDNAKNTVFLQMNNLKPEDTAIYYCAVDTYSMTMSARDYEYWGQGTQVTVSS
As to B3, the results for the binning response in assay [1] and in assay [4] were 0.04 and 0.46, respectively. Also, the Kd in assay [2] was below 0.2 nM. The same molecule yielded an EC50 in assay [3] of 0.05 nM.

B4: 10B8 VHH-Fc (Fc fusion)
chain: QVQLVESGGGLVQPGGSLRLSCAASGITLDYYAIAWFRQAPGKEREGVSCFCSSDGDIRYADSVKGRFTISRDNAKNTVYLQMNSLKPEDTAVYYCATERVYSSTWFFHRYSELDFGSWGRGTQVTVSS
For B4, the binning response amounted to 0.42 in [5]; 0.36 in assay [6]; 0.1 in [7]; 0.12 in assay [8]; 0.12 in [9]; 0.09 in assay [10]. The binning response in [11] stood at 0.1; in assay [12], 0.39; in assay [13], 0.12; in assay [14] it was 0.05; in assay [19], 0.12. The Kd in assay [2] is below 0.2 nM. This molecule also returned an EC50 in assay [3] of 1.35 nM. Further, the “pseudovirus neutralization IC50” value in assay [15] came out at 0.21 nM; in assay [16] it was 4.1 nM; in [17] it was 0.38 nM; in [18], 0.23 nM.

B5: 1A11 VHH-Fc (Fc fusion)
chain: QVQLVESGGGLVQAGGSLRLSCEVSGSIYSINSMGWYRQAPGKQRELVAGIVSDGRINYADSVKGRFTISRAKNTVYLQMNSLKPEDTAVYYCAADRAFVYAGDYDYLGQGTQVTVSS
As to B5, the binning response in assay [5] was 0.38; in assay [6], 0.34; in assay [7] it was 0.1; in assay [8] it was 0.14; in assay [9] it was 0.11; in assay [10], 0.1. Besides, the binning response is 0.13 in [11]; 0.35 in [12]; 0.13 in assay [13]; 0.06 in [14]; 0.14 in [19]. In [2], the Kd was below 0.2 nM. Besides, a half-maximal response in [3] (EC50) required 0.18 nM. Besides, the “pseudovirus neutralization IC50” value turned out to be 6.4 nM in [15], 42 nM in [16], 6.6 nM in assay [17] and 4.1 nM in assay [18].

B6: 19B8 VHH-Fc (Fc fusion)
chain: QVQLVESGGGLVQAGGSLRLSCAASGRTFTNYAMGWFRQAPGKEREFVAAISWSGGGTNYADSVKGRFTISRDNAKNTVYLQMNSPKPEDTAVYYCATTLGYYGSSSRLYEYWGQGTQVTVSS
With B6, the binning response turned out to be 0.48 in [1] and 0.08 in [4]. Also, the Kd in assay [2] stood at 1.1 nM. Besides, the EC50 in [3] is 0.06 nM. In [16], the “pseudovirus neutralization IC50” value stood at 47 nM.

B7: 19E10 VHH-Fc (Fc fusion)
chain: QVQLVESGGGLVQPGGSLRLSCVASGSTISINSMGWYRQAPGKAREMVATITNDGPIKYADPVKGRFTISRDNPKNTVYLQMNSLKPEDTAVYYCVADRAYWLAGEWEYWGQGTQVTVSS
As to B7, the binning response in [5] is 0.3; in assay [6], 0.22; in [7], 0.08; in [8], 0.12; in assay [9] it was 0.11; in [10] it was 0.09. Further, the binning response came out at 0.12 in assay [11]; 0.26 in [12]; 0.11 in [13]; 0.06 in assay [14]; 0.11 in [19]. The Kd in [2] was below 0.2 nM. In addition, the EC50 in assay [3] was 0.03 nM. In addition, the “pseudovirus neutralization IC50” value came out at 5.9 nM in [15], 309 nM in assay [16], 7 nM in [17] and 3.1 nM in assay [18].

B8: 11F5 VHH-Fc (Fc fusion)
chain: QVQLVESGGGAVQAGDSLRLSCTASGRTFSTYAVGWFRQAPGKERELLAAITGSGRNPYYPDSLKGRFTISREYAKLPVYLQMNSLKPEDTAVYYCAARRGAIATMPLDYDHWGQGTQVTVSS
Take B8: the binning response in assay [1] amounted to 0.1; in assay [4], 0.52. Besides, in assay [2], the Kd was below 0.2 nM. Also, the EC50 in assay [3] was 0.12 nM.

B9: 9B2 VHH-Fc (Fc fusion)
chain: QVQLVESGGGLVQPGGSLRLSCAASGFTLDNYAIGWFRQAPGKEREGVSCISSSDGDTQYADSVKGRFTISRDNAKNTVYLQMNSLKPEDTAVYYCAVEKVYARSWFFHLCSELDFGSWGQGTQVTVSS
For the molecule B9, the binning response worked out at 0.36 in assay [5]; 0.32 in assay [6]; 0.1 in [7]; 0.13 in assay [8]; 0.12 in [9]; 0.09 in assay [10]. For the same molecule, the binning response was 0.11 in assay [11]; 0.32 in [12]; 0.1 in assay [13]; 0.05 in assay [14]; 0.11 in [19]. The Kd in assay [2] is below 0.2 nM. This molecule had an EC50 in assay [3] of 0.1 nM. The “pseudovirus neutralization IC50” value in assay [15] was determined as 21 nM; in assay [16], 52 nM; in assay [17] it was 22 nM; in assay [18], 4.2 nM.

B10: 16H7 VHH-Fc (Fc fusion)
chain: QVQLVESGGGLVQAGGSLRLSCAASGRAFSKDTMGWFRQAPGKEREFVAVISASGDSTYYADFVKGRFTISRDNAKNTEYLQMNSLKPEDTAVYHCAADGARAYYSINAHRYSWAYNYWGQGTQVTVSS
Regarding B10, the binning response was found to be 0.56 in assay [1] and 0.19 in assay [4]. Further, the Kd in [2] came to 3 nM. This molecule also returned an EC50 in [3] of 0.08 nM.

B11: 6A1 VHH-Fc (Fc fusion)
chain: QVQLVESGGGLVQAGGSLRLSCTASGNIFSVNVMGWHRQAPGKRRELVAALTNDGRRNYADSVKGRFTISRDNAKNTIYLEMNSLKPEDTAVYYCGTGTLESGFNSWGQGLQVTVSS
Take B11: the binning response stood at 0.37 in assay [1] and 0.4 in [4]. In addition, the Kd in assay [2] is 1.6 nM. The same molecule showed an EC50 in assay [3] of 0.44 nM.

(Values after patent publication US20250382355A1 (Merck Sharp & Dohme, published 2025).)
